Test results reported in US20250304677A1 (VIB VZW, published 2025).
One block for each binder: values may come before it.

Columns and labels:
[1] = target: T1, mouse folate receptor alpha (mFRα), recombinant protein (mouse, UniProt P35846 25-232); experiment: BLI
T1 construct: Bought recombinant proteins (e.g. biotinylated, Acro Biosystems FO1-M82E9); also called mFOLR1; Ms FOLR1
Summary of the method: (§1)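 Fold change compares each variant with its wild-type VHH, as the negative of variant koff over wild-type koff for a worse off-rate, or wild-type koff over variant koff for a better one. Off-rates came from biolayer interferometry against biotinylated human and mouse folate receptor alpha on streptavidin biosensors. Calculation of koff relied on a 1:1 binding model.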

[2] = target: T2, human folate receptor alpha (hFRα), recombinant protein (human, UniProt P15328 25-233); experiment: BLI
T2 construct: Bought recombinant proteins (His-tagged, or biotinylated via Avi-tag, e.g. AcroBiosystems FO1-H82E2, F01-H52H1); also called hFOLR1; huFOLR1
T2 sequence (P15328 25-233 limits assumed): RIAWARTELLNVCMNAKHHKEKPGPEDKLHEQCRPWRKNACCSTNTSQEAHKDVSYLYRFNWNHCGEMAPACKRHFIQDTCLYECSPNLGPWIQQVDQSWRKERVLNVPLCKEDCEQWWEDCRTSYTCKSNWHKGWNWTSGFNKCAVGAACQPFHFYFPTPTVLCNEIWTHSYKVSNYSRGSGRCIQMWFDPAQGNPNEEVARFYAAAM
Summary of the method: as §1

[3] = target: T1, mouse folate receptor alpha (mFRα), …; experiment: BLI, biotinylated FOLR1 on streptavidin biosensors
Experimental: (§2) The off-rates of the 2HFO9 ^{∘}FIG. 5A) and 2MFR67 ^{∘}FIG. 5B) mutants and the three wild-type ^{∘}WT) VHHs from family 3 were determined by biolayer interferometry ^{∘}BLI) on both mouse and human biotinylated folate receptor alpha ^{∘}FOLR1) that was immobilized on streptavidin biosensors. The off-rates were calculated using a 1:1 binding model. The fold change compared to the off-rates of the corresponding WT VHH is represented as the WT VHH off-rate divided by the off-rate of the mutant for the VHHs that show an improved off-rate compared to the WT. For the VHHs that show a worse off-rate compared to the WT, the fold change is represented as the negative value of the mutant VHH off-rate divided by the WT off-rate. The red bars represent the WT 2HFO9 and 2MFR67 in the upper and lower panel respectively.

[4] = target: T2, human folate receptor alpha (hFRα), …; experiment: BLI, biotinylated FOLR1 on streptavidin biosensors
Experimental: as §2

[5] = target: T2, human folate receptor alpha (hFRα), …; experiment: BLI off-rate screening, crude periplasmic extract, biotinylated human FRα on streptavidin biosensors
Experimental: (§3) Non-redundant clones were tested as crude periplasmatic extracts for binding analysis to human FRα and mouse FRα proteins captured on streptavidin biosensors in BLI. Variants P0150001 and P0150005 grown in the same 96-well plates were included as controls.

[6] = target: T1, mouse folate receptor alpha (mFRα), …; experiment: BLI off-rate screening, crude periplasmic extract, biotinylated mouse FRα on streptavidin biosensors
Experimental: as §3

[7] = target: T1, mouse folate receptor alpha (mFRα), …; experiment: BLI, Avi-biotinylated FRα
Experimental: (§4) Purified VHHs ^{∘}100 nM) were analysed for binding to avi-tagged biotinylated FRα protein captured on streptavidin-biosensors via BLI.
(§5) Off-rates of purified variants were determined to human, mouse, and cynomolgus FRα in BLI. In addition, binding of the affinity optimised variants to cell-expressed human FRα on HeLa cells was determined by flow cytometry ^{∘}FIG. 10 B).

[8] = target: T2, human folate receptor alpha (hFRα), …; experiment: BLI, Avi-biotinylated FRα
Experimental: as §4, §5

[9] = target: T1, mouse folate receptor alpha (mFRα), …; experiment: BLI, purified VHH
Summary of the method: (§6)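 Affinity-optimised VHH variants were produced as flag3-His6-tagged proteins in TG-1 E. coli at 0.5 L scale. They were purified from the periplasmic fraction on Ni Sepharose FastFlow columns, desalted, and checked for purity by SDS-PAGE. Off-rates to human, mouse and cynomolgus folate receptor alpha were then determined by biolayer interferometry.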

[10] = target: T3, cynomolgus folate receptor alpha, recombinant (cynomolgus, UniProt A0A2K5U044 25-233); experiment: BLI, purified VHH
T3 construct: also called cyFOLR1; cynomolgus FRα
T3 sequence (A0A2K5U044 entry or part of it): as the sequence (P15328 25-233 limits assumed) above, with I2T, W4R, R37K, A146P, H171Y counted along it
Summary of the method: as §6

[11] = target: T2, human folate receptor alpha (hFRα), …; experiment: BLI, purified VHH
Summary of the method: as §6

[12] = target: T4, human folate receptor alpha expressed on cells (transfected HEK293T, HeLa, MCF7, MDA-MB-231) (human, UniProt P15328 25-234); experiment: flow cytometry on HeLa cells, anti-Flag detection
T4 construct: HEK293T transiently transfected with human FOLR1; also called native human FRα; cell-expressed human FOLR1
T4 sequence (P15328 25-234 limits assumed): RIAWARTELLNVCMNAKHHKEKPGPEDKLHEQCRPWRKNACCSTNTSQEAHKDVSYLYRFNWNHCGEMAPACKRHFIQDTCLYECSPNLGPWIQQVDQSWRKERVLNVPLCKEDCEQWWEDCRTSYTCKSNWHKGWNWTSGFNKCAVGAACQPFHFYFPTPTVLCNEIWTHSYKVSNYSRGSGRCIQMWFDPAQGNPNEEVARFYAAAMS
Experimental: EC₅₀ values are found in Table 9. Detection of VHH cell binding was done through anti-Flag M2 mIgG1 followed by anti-mFc-PE in flow cytometry. Results are depicted as mean fluorescence intensity ^{∘}MFI).
as §5

T1 sequence (P35846 25-232 limits assumed): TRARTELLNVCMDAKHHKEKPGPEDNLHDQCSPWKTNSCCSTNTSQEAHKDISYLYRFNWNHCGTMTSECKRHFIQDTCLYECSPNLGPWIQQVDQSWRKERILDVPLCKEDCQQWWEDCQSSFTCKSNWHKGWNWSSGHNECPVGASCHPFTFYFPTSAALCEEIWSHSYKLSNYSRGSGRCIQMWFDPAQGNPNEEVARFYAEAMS

B1: P01500012: P0150001 with M32I (VHH)
VHH: EVQLVESGGGLVQPGGSLRLSCAASGSGFSGIIMGWYRQAPGKQRELVATVTSHGTTNYADSVKGRFTISRDNAKNTVYLQMNSLRPEDTAVYYCNAHFPGIYWGKGTLVTVSS
notes: Entry carries a His6 tag
- koff [1]: 0.00762 s⁻¹
- nm (Fold wt) [1]: 4.7
- koff [2]: 0.0712 s⁻¹
- nm (Fold wt) [2]: 5.4

B2: 2HFO9 (I51V,G54H)-NT (VHH)
VHH: QVQLQESGGGLVQAGGSLRLSCAASGSGFSGMIMGWYRQAPGKQRELVATVTSHGTTNYADSVKGRFTISRDNAKNTVLLQMNSLKPEDTAVYYCNAHFPGIYWGKGTQVTVSS
notes: not shown: neurotensin tridecapeptide (NT) and any linker or tags of the fusion
- Fold to 2HF042 (koff) [3]: 0.9
- Fold to WT (koff) [3]: 0.3
- koff [3]: 0.00236 s⁻¹
- Fold hu/ms (koff) [4]: 6
- Fold to WT (koff) [4]: 0.7
- koff [4]: 0.0145 s⁻¹

B3: 2MFR67 (E72D, D72N, S74A)-NT (VHH, not shown: small tags and cut ends)
VHH: QVQLQESGGGLVQAGGSLRLSCAASGSGFSGMIMGWYRQAPGKQRELVATVTSHGTTNYADSVKGRFTISRDNAKNTVLLQMNSLKPEDTAVYYCNAHFPGIYWGKGTQVTVSS
notes: Second substitution printed D72N; also called 2MFR67 triple mutant
- Fold to 2HF042 (koff) [3]: 0.9
- Fold to WT (koff) [3]: 2.6
- koff [3]: 0.00258 s⁻¹
- Fold hu/ms (koff) [4]: 7
- Fold to WT (koff) [4]: 2.9
- koff [4]: 0.0173 s⁻¹

B8: 2HFO9(I51V)-NT (VHH)
VHH: QVQLQESGGGLVQAGGSLRLSCAASGSGFSGMIMGWYRQAPGKQRELVATVTSGGTTNYADSVKGRFTISRDNAKNTVLLQMNSLKPEDTAVYYCNAHFPGIYWGKGTQVTVSS
notes: as for B2
- Fold to 2HF042 (koff) [3]: 0.2
- Fold to WT (koff) [3]: 1.8
- koff [3]: 0.012 s⁻¹
- Fold hu/ms (koff) [4]: 2
- Fold to WT (koff) [4]: 1
- koff [4]: 0.0205 s⁻¹

B9: P01500056: P01500001(I33L, D72P, N73G)-FLAG3-HIS6 (VHH)
VHH: EVQLVESGGGLVQPGGSLRLSCAASGSGFSGMLMGWYRQAPGKQRELVATVTSHGTTNYADSVKGRFTISRPGAKNTVYLQMNSLRPEDTAVYYCNAHFPGIYWGKGTLVTVSS
notes: also called P0150056
- koff [7]: 3.38e-05 s⁻¹
- koff [8]: 0.000295 s⁻¹
- koff [9]: 3.38e-05 s⁻¹
- koff [10]: 0.00034 s⁻¹
- koff [11]: 0.000265 s⁻¹
- EC50 [12]: 2.52 nM
- MFI top [12]: 55300 MFI

B11: P01500057: P01500001(G26E, G28P, D72E, N73G)-FLAG3-HIS6 (VHH)
VHH: EVQLVESGGGLVQPGGSLRLSCAASESPFSGMIMGWYRQAPGKQRELVATVTSHGTTNYADSVKGRFTISREGAKNTVYLQMNSLRPEDTAVYYCNAHFPGIYWGKGTLVTVSS
notes: also called P0150057
- koff [7]: 2.11e-05 s⁻¹
- koff [8]: 0.000316 s⁻¹
- koff [9]: 2.11e-05 s⁻¹
- koff [10]: 0.000234 s⁻¹
- koff [11]: 0.000307 s⁻¹
- EC50 [12]: 2.56 nM
- MFI top [12]: 53800 MFI

B16: 2HFO9(G54H)-NT (VHH)
VHH: QVQLQESGGGLVQAGGSLRLSCAASGSGFSGMIMGWYRQAPGKQRELVATITSHGTTNYADSVKGRFTISRDNAKNTVLLQMNSLKPEDTAVYYCNAHFPGIYWGKGTQVTVSS
notes: as for B2
- Fold to 2HF042 (koff) [3]: 1
- Fold to WT (koff) [3]: 0.3
- koff [3]: 0.00215 s⁻¹
- Fold hu/ms (koff) [4]: 6
- Fold to WT (koff) [4]: 0.6
- koff [4]: 0.0133 s⁻¹

B17: P01500014: P0150001 with M32P (VHH)
VHH: EVQLVESGGGLVQPGGSLRLSCAASGSGFSGPIMGWYRQAPGKQRELVATVTSHGTTNYADSVKGRFTISRDNAKNTVYLQMNSLRPEDTAVYYCNAHFPGIYWGKGTLVTVSS
notes: Entry carries a His6 tag
- koff [1]: 0.00241 s⁻¹
- nm (Fold wt) [1]: 1.5
- koff [2]: 0.0255 s⁻¹
- nm (Fold wt) [2]: 2

Now from value to binder:

- binding result [5]: binds
- binding result [6]: binds
B4: [G28P] (VHH)
VHH: EVQLVESGGGLVQPGGSLRLSCAASGSPFSGMIMGWYRQAPGKQRELVATVTSHGTTNYADSVKGRFTISRDNAKNTVYLQMNSLRPEDTAVYYCNAHFPGIYWGKGTLVTVSS
notes: library clone tested as crude periplasmic extract; also called P01500001[G28P]

- binding result [5]: binds
- binding result [6]: binds
B5: [D72P] (VHH)
VHH: EVQLVESGGGLVQPGGSLRLSCAASGSGFSGMIMGWYRQAPGKQRELVATVTSHGTTNYADSVKGRFTISRPNAKNTVYLQMNSLRPEDTAVYYCNAHFPGIYWGKGTLVTVSS
notes: library clone tested as crude periplasmic extract; also called P01500001[D72P]

- koff [1]: 0.00346 s⁻¹
- nm (Fold wt) [1]: 2.1
- koff [2]: 0.0259 s⁻¹
- nm (Fold wt) [2]: 2
B6: P01500090: P0150001 with A24V, S27L, M32P, N67E (VHH)
VHH: EVQLVESGGGLVQPGGSLRLSCAVSGLGFSGPIMGWYRQAPGKQRELVATVTSHGTTNYADSVKGRFTISRDNAKETVYLQMNSLRPEDTAVYYCNAHFPGIYWGKGTLVTVSS

- koff [1]: 0.00614 s⁻¹
- nm (Fold wt) [1]: 3.8
- koff [2]: 0.0747 s⁻¹
- nm (Fold wt) [2]: 5.7
B7: P01500089: P0150001 with S27T, M32I, N76D (VHH)
VHH: EVQLVESGGGLVQPGGSLRLSCAASGTGFSGIIMGWYRQAPGKQRELVATVTSHGTTNYADSVKGRFTISRDNAKDTVYLQMNSLRPEDTAVYYCNAHFPGIYWGKGTLVTVSS

- koff [1]: 0.0035 s⁻¹
- nm (Fold wt) [1]: 2.1
- koff [2]: 0.024 s⁻¹
- nm (Fold wt) [2]: 1.8
B10: P01500086: P0150001 with A24L, S27A, M32P (VHH)
VHH: EVQLVESGGGLVQPGGSLRLSCALSGAGFSGPIMGWYRQAPGKQRELVATVTSHGTTNYADSVKGRFTISRDNAKNTVYLQMNSLRPEDTAVYYCNAHFPGIYWGKGTLVTVSS

- koff [1]: 0.00176 s⁻¹
- nm (Fold wt) [1]: 1.1
- koff [2]: 0.0159 s⁻¹
- nm (Fold wt) [2]: 1.2
B12: P01500085: P0150001 with A24V, S27L, M32P (VHH)
VHH: EVQLVESGGGLVQPGGSLRLSCAVSGLGFSGPIMGWYRQAPGKQRELVATVTSHGTTNYADSVKGRFTISRDNAKNTVYLQMNSLRPEDTAVYYCNAHFPGIYWGKGTLVTVSS

- koff [1]: 0.00649 s⁻¹
- nm (Fold wt) [1]: 4
- koff [2]: 0.0336 s⁻¹
- nm (Fold wt) [2]: 2.5
B13: P01500084: P0150001 with A24V, S27T, M32I, N76D (VHH)
VHH: EVQLVESGGGLVQPGGSLRLSCAVSGTGFSGIIMGWYRQAPGKQRELVATVTSHGTTNYADSVKGRFTISRDNAKDTVYLQMNSLRPEDTAVYYCNAHFPGIYWGKGTLVTVSS

- binding result [5]: binds
- binding result [6]: binds
B14: [D72E] (VHH)
VHH: EVQLVESGGGLVQPGGSLRLSCAASGSGFSGMIMGWYRQAPGKQRELVATVTSHGTTNYADSVKGRFTISRENAKNTVYLQMNSLRPEDTAVYYCNAHFPGIYWGKGTLVTVSS
notes: library clone tested as crude periplasmic extract; also called P01500001[D72E]

- koff [1]: 0.0154 s⁻¹
- nm (Fold wt) [1]: 9.4
- koff [2]: 0.381 s⁻¹
- nm (Fold wt) [2]: 29
B15: P01500088: P0150001 with S27T, M32I (VHH)
VHH: EVQLVESGGGLVQPGGSLRLSCAASGTGFSGIIMGWYRQAPGKQRELVATVTSHGTTNYADSVKGRFTISRDNAKNTVYLQMNSLRPEDTAVYYCNAHFPGIYWGKGTLVTVSS

- koff [1]: 0.00376 s⁻¹
- nm (Fold wt) [1]: 2.3
- koff [2]: 0.0269 s⁻¹
- nm (Fold wt) [2]: 2
B18: P01500087: P0150001 with A24L, S27A, M32P, N67E (VHH)
VHH: EVQLVESGGGLVQPGGSLRLSCALSGAGFSGPIMGWYRQAPGKQRELVATVTSHGTTNYADSVKGRFTISRDNAKETVYLQMNSLRPEDTAVYYCNAHFPGIYWGKGTLVTVSS
